{
  "source": "patent US10428308B2",
  "about": "“Mesoderm and definitive endoderm cell populations” (Icahn School of Medicine at Mount Sinai, priority 2005, dated 2019)",
  "molecules": {"B1": {"name": "DKK1: Wnt signaling inhibitor binding the Wnt co-receptors LRP5 and LRP6 (protein, UniProt O94907 32-266, looked up)", "Dickkopf-related protein 1": "TLNSVLNSNAIKNLPPPLGGAAGHPGSAVSAAPGILYPGGNKYQTIDNYQPYPCAEDEECGTDEYCASPTRGGDAGVQICLACRKRRKRCMRHAMCCPGNYCKNGICVSSDQNHFRGEIEETITESFGNDHSTLDGYSRRTTLSSKMYHTKGQEGSVCLRSSDCASGLCCARHFWSKICKPVLKEGQVCTKHRRKGSHGLEIFQRCYCGEGLSCRIQKDHHQASNSSRLHTCQRH"}, "B2": {"name": "BMP4: growth factor purchased from R&D systems (protein, UniProt P12644 293-408, looked up)", "Bone morphogenetic protein 4": "SPKHHSQRARKKNKNCRRHSLYVDFSDVGWNDWIVAPPGYQAFYCHGDCPFPLADHLNSTNHAIVQTLVNSVNSSIPKACCVPTELSAISMLYLDEYDKVVLKNYQEMVVEGCGCR"}, "B3": {"name": "Wnt3a: recombinant Wnt3a (protein, UniProt P56704 19-352, looked up)", "Protein Wnt-3a": "SYPIWWSLAVGPQYSSLGSQPILCASIPGLVPKQLRFCRNYVEIMPSVAEGIKIGIQECQHQFRGRRWNCTTVHDSLAIFGPVLDKATRESAFVHAIASAGVAFAVTRSCAEGTAAICGCSSRHQGSPGKGWKWGGCSEDIEFGGMVSREFADARENRPDARSAMNRHNNEAGRQAIASHMHLKCKCHGLSGSCEVKTCWWSQPDFRAIGDFLKDKYDSASEMVVEKHRESRGWVETLRPRYTYFKVPTERDLVYYEASPNFCEPNPETGSFGTRDRTCNVSSHGIDGCDLLCCGRGHNARAERRREKCRCVFHWCCYVSCQECTRVYDVHTCK"}},
  "key": {"ALK4, 5, and 7": {"system": "ALK4, 5, and 7", "settings": "Inman et al. (2002); cited from earlier work"}, "CD4-HNF/GFP-T ES cells": {"system": "CD4-HNF/GFP-T ES cells", "experiment": "Activin A / Wnt3a induction of ES derived primitive streak like cells in serum free culture, with pathway inhibitors", "format": "cell-based, mouse", "settings": "for development of GFP^+ CD4^+ cells with either inducer (activin or Wnt): DKK1 100 ng/ml or SB-431542 6 uM", "experimental": "FIGS. 34A, 34B and 34C depict ES cells differentiated in serum free conditions with Activin A Wnt3a and/or inhibitors of these pathways. ES cells were cultured in serum free media for two days then trypsinized to obtain a single cell population. These cells were then reaggregated with the indicated conditions. At day six, the EBs were plated on matrigel coated dishes in serum free media.\nLiu et. al. (1999) Nat. Genet. 22: 361-4. […] Activin stimulation leads to high levels of CD4 expression that persist after loss of GFP-Bry expression at day 6. […] Wnt does however stimulate expression of the posterior primitive streak markers HoxBI and Tbx6, while activin only induces Tbx6. […] At day 6, EBs that were stimulated with either activin or Wnt3a were plated on matrigel in serum free media to allow further development.\nConsidering that Wnt stimulation induces nodal and activin treatment induces Wnt3 (FIG. 34B), it is unknown whether activin/nodal signaling or Wnt Signaling alone can induce primitive streak formation or whether both factors are required together. CD4-HNF/GFP-T ES cells were induced with either activin or Wnt in conjunction with specific inhibitors of these pathways. DKK1 was used to inhibit Wnt signaling while the small molecule inhibitor SB-431542 (SB) was used to block Nodal/TGFβ signaling. DKK1 functions by binding the Wnt co-receptors, LRP5 and LRP6, which are essential for activation of the βcatenin signaling pathway. […] Inman et. al. (2002) MoI. Pharmacol. 62: 65-74. […] Therefore, to induce mesoderm and endoderm germ layers and their derivative tissues, both activin/Nodal and Wnt signals are required initially."}, "[1]": {"system": "GFP^+ hCD4^med cells from CD4-HNF/GFP-T ES cells", "experiment": "Reaggregation of sorted GFP^+ hCD4^med cells in serum free media with DKK1 and/or activin", "format": "cell-based, mouse", "experimental": "FIGS. 35A and 35B depict, the effects of DKK1 and activin on EB differentiation. EBs differentiated and sorted as in FIG. 32 for GFP^+ hCD4^med were allowed to reaggregate in serum replacement containing media alone or with the addition of human DKK1 100 ng/ml, activin 100 ng/ml, or both factors together. […] FIG. 35B depicts endodermal gene expression by RT PCR. The sorted populations were treated as indicated above for 2 days, then plated on matrigel in serum free media without factors added. Gene expression was analyzed an additional 5 days after plating.\nNodal, a key molecule involved in mesoderm/endoderm induction in vivo, signals through the same receptors as activin. It is also known that Nodal as well as inhibitors for Wnt signaling are expressed preferentially in or around the anterior primitive streak. Considering that the endoderm forms from the anterior primitive streak, it is possible that nodal/activin signaling in combination with inhibition of Wnt signals induces endoderm formation. To test this hypothesis, CD4-HNF/GFP-T ES cells were differentiated for 3.25 days in serum and GFP^+ hCD4^med cells were sorted and reaggregated in serum free media with no factor, DKK1 (Wnt inhibitor), activin, or activin and DKK1. The effect of these culture conditions on hCD4-HNF3β and GFP-Bry levels were analyzed by flow cytometry (FIG. 35A). With serum free media alone, hCD4 expression was lost after 1 day reaggregation. […] To further test this idea, sorted cells reaggregated for two days in the culture conditions above were washed with serum free media without factors and plated onto martrigel in serum free media. After 5 days, the cultures were harvested and gene expression determined by RT PCR. […] These culture conditions have the potential to allow the large scale production of endodermal derived tissues such as the pancreas and liver."}, "EBs (brachyury^+ cells)": {"system": "EBs (brachyury^+ cells)", "experiment": "BMP4 added to developing EBs in serum free cultures, GFP/Flk-1 expression", "format": "cell-based, mouse", "settings": "BMP4 20 ng/ml", "experimental": "FIG. 8B depicts expression of brachyury and Flk-1 on cell populations generated from GFP+/Flk-1^− cells cultured for 20 hours under the indicated conditions.\nTo assess the role of serum in the development of brachyury^+ cells, EBs were differentiated the absence of serum. EBs did develop under these conditions, although they were somewhat smaller than those found in normal conditions. […] Significant numbers of GFP^+/Flk-1^− and GFP^+/Flk-1^+ cells did develop when serum was added to the cultures. […] As a first step in identifying factors that might play a role in this process, BMP4 (20 ng/ml) was added to the developing EBs in the serum free cultures. […] To determine if BMP4 could induce GFP^+/Flk-1^+ from GFP^+/Flk-1^− cells that were induced in the presence of serum, GFP^+/Flk-1^− cells were isolated from EBs differentiated for three days in the presence of serum. These cells were reaggregated in medium alone, in medium with serum or in medium with BMP4. […] As expected, the same population generated a large GFP^+/Flk-1^+ population when serum was added to the cultures. Consistent with the findings in the primary differentiation cultures, BMP4 was unable to induce the development of significant numbers of GFP^+/Flk-1^+ cells from the cultured GFP^+/Flk-1^− cells."}},
  "data": [
    {"molecule": "NC(=O)c1ccc(-c2nc(-c3ccc4c(c3)OCO4)c(-c3ccccn3)[nH]2)cc1", "note": "[SB-431542]", "values": [
      {"measurement": "effect on BMP signaling", "setting": "ALK4, 5, and 7", "result": "does not, however, block BMP signaling"},
      {"measurement": "receptor specificity", "setting": "ALK4, 5, and 7", "result": "specific inhibitor of the receptors ALK4, 5, and 7"},
      {"measurement": "development of GFP^+ CD4^+ cells with either inducer (activin or Wnt)", "setting": "CD4-HNF/GFP-T ES cells", "result": "completely blocked"}
    ]},
    {"molecule": "B1", "values": [
      {"measurement": "endoderm gene expression by RT PCR (pancreas, liver, intestine genes)", "setting": "[1]; 2 days treatment, then 5 days on matrigel without factors", "result": "None of these genes were detected"},
      {"measurement": "hCD4 (HNF3β) level by flow cytometry", "setting": "[1]; after 1 day reaggregation, DKK1 100 ng/ml, activin 100 ng/ml", "result": "allowed some cells to retain low levels of hCD4"},
      {"measurement": "development of GFP^+ CD4^+ cells with either inducer (activin or Wnt)", "setting": "CD4-HNF/GFP-T ES cells", "result": "completely blocked"}
    ]},
    {"molecule": "B2", "values": [
      {"measurement": "development of GFP^+/Flk-1^+ population", "setting": "EBs (brachyury^+ cells); serum free primary differentiation cultures", "result": "did not support the development of the GFP^+/Flk-1^+ population"},
      {"measurement": "induction of brachyury^+ cells", "setting": "EBs (brachyury^+ cells); serum free, within 3 days of differentiation", "result": "induce a significant population of brachyury^+ cells"}
    ]},
    {"molecule": "B3", "values": [
      {"measurement": "endodermal gene expression (Alb, Aat, HNF4, Pdxl) by RT-PCR", "setting": "CD4-HNF/GFP-T ES cells; day 6 EBs plated on matrigel a further 6 days, serum free", "result": "did not express any of these markers"},
      {"measurement": "induction of GFP^+ CD4^+ cells", "setting": "CD4-HNF/GFP-T ES cells; serum free, Activin A 25 ng/ml or Wnt3a 100 ng/ml", "result": "initially induce GFP^+ CD4^+ cells"}
    ]}
  ]
}
